Data on 44 sequences can be found in patent US20240197834A1, “PHARMACEUTICAL COMPOSITION FOR PREVENTING OR TREATING CHRONIC RENAL DISEASE INCLUDING GLUCAGON DERIVATIVE” (HANMI PHARM. CO., LTD., priority 2021, published 2024).

Bridge positions count the residues as written; N and C are the ends. Square brackets hold non-standard residues; d marks the D form. Ends that are not written are not given here. Aib = CC(C)(N)C(=O)O

This data set in a line: pI of native glucagon and glucagon derivatives. The data set is classed as physicochemical. On the procedure:
Accordingly, as described in Table 1 below, a native glucagon and glucagon derivatives having equivalent activity thereto were first prepared. Referring to WO 2016/108586, WO 2017/003191, and WO 2018/004283, the glucagon derivatives were synthesized, and pl and in vitro activity thereof were measured.

“HSQGTFTSDYSKYLDCDRAQDFVQWLMNT (glucagon derivative) [SEQ ID NO: 2]” registered a pl of 4.56. With “HSQGTFTSDYSKYLDCERAQDFVQWLMNT (glucagon derivative) [SEQ ID NO: 3]” the figure was 4.66; with “HSQGTFTSDYSKYLDSCDAQDFVQWLMNT (glucagon derivative) [SEQ ID NO: 4]”, 4.13; with “HSQGTFTSDYSKYLDSCEADDFVQWLMNT (glucagon derivative) [SEQ ID NO: 6]”, 4.03. The sequence “HSQGTFTSDYSKYLDSCEAQDFVQWLMNT (glucagon derivative) [SEQ ID NO: 5]” gave a pl of 4.22. As for “SQGTFTSDYSKYLDECRAKEFVQWLMNT (lactam 15-19) [SEQ ID NO: 32]”, the figure is 4.78.

The sequence “WXQGTFTSDYSKCLDERRAKDFVQWLMNT (W[Aib]QGTFTSDYSKCLDERRAKDFVQWLMNT; lactam 16-20) [SEQ ID NO: 30]” had a pl of 4.44. “WXQGTFTSDYSKYCDERRAKEFVQWLMNT (W[Aib]QGTFTSDYSKYCDERRAKEFVQWLMNT; lactam 16-20) [SEQ ID NO: 34]” registered a pl of 6.21.

The sequence “WXQGTFTSDYSKYLDECRAKDFVQWLMNT (W[Aib]QGTFTSDYSKYLDECRAKDFVQWLMNT; lactam 16-20) [SEQ ID NO: 26]” yielded a pl of 4.68. “WXQGTFVSDYSKYLDECRAKDFVQWLMNT (W[Aib]QGTFVSDYSKYLDECRAKDFVQWLMNT; lactam 16-20) [SEQ ID NO: 28]” registered a pl of 4.68. As for “YSQGTFTSDYSKYLDSCEADDFVQWLMNT (glucagon derivative) [SEQ ID NO: 7]”, the figure is 3.71; as for “YXQGTFCSDYSKYLDERRAKDFVQWLMNT (Y[Aib]QGTFCSDYSKYLDERRAKDFVQWLMNT; lactam 16-20) [SEQ ID NO: 41]”, 6.03; as for “YXQGTFCSDYSKYLDERRAKEFVQWLMNT (Y[Aib]QGTFCSDYSKYLDERRAKEFVQWLMNT; lactam 16-20) [SEQ ID NO: 38]”, 6.15. On to “YXQGTFCSDYSKYLDSRRAQDFVQWLMNT (Y[Aib]QGTFCSDYSKYLDSRRAQDFVQWLMNT) [SEQ ID NO: 42]”, for which the pl came out at 6.03. With “YXQGTFTSDCSKYLDERRAKEFVQWLMNT (Y[Aib]QGTFTSDCSKYLDERRAKEFVQWLMNT; lactam 16-20) [SEQ ID NO: 36]” the figure was 6.21; with “YXQGTFTSDCSKYLDSRRAQDFVQWLMNT (Y[Aib]QGTFTSDCSKYLDSRRAQDFVQWLMNT) [SEQ ID NO: 43]”, 6.03. As for “YXQGTFTSDYSCYLDEKRAKEFVQWLMNT (Y[Aib]QGTFTSDYSCYLDEKRAKEFVQWLMNT) [SEQ ID NO: 45]”, the figure is 4.78; as for “YXQGTFTSDYSCYLDSRRAQDFVQWLMNT (Y[Aib]QGTFTSDYSCYLDSRRAQDFVQWLMNT) [SEQ ID NO: 13]”, 4.43. Consider “YXQGTFTSDYSKCLDEKRAKEFVQWLMNT (Y[Aib]QGTFTSDYSKCLDEKRAKEFVQWLMNT; lactam 16-20) [SEQ ID NO: 24]”, for which the pl was 6.21. With “YXQGTFTSDYSKCLDERRAKDFVQWLMNT (Y[Aib]QGTFTSDYSKCLDERRAKDFVQWLMNT; lactam 16-20) [SEQ ID NO: 29]” the figure was 6.15; with “YXQGTFTSDYSKYCDEKRAKEFVQWLMNT (Y[Aib]QGTFTSDYSKYCDEKRAKEFVQWLMNT; lactam 16-20) [SEQ ID NO: 23]”, 6.20. With “YXQGTFTSDYSKYCDERRAKEFVQWLMNT (Y[Aib]QGTFTSDYSKYCDERRAKEFVQWLMNT; lactam 16-20) [SEQ ID NO: 35]” the figure was 6.2; with “YXQGTFTSDYSKYLCEKRAKEFVQWLMNT (Y[Aib]QGTFTSDYSKYLCEKRAKEFVQWLMNT; lactam 16-20) [SEQ ID NO: 19]”, 8.12.

With “YXQGTFTSDYSKYLCEKRAQDFVVWLMNT (Y[Aib]QGTFTSDYSKYLCEKRAQDFVVWLMNT) [SEQ ID NO: 15]”, the pl turned out to be 6.11. With “YXQGTFTSDYSKYLDCKRAKEFVQWLMNT (Y[Aib]QGTFTSDYSKYLDCKRAKEFVQWLMNT; lactam 17-21) [SEQ ID NO: 31]” the figure was 8.12; with “YXQGTFTSDYSKYLDCKRAKEFVQWLMNT [SEQ ID NO: 14] (Y[Aib]QGTFTSDYSKYLDCKRAKEFVQWLMNT)”, 8.12; with “YXQGTFTSDYSKYLDCRRAQVFVQWLMRT (Y[Aib]QGTFTSDYSKYLDCRRAQVFVQWLMRT) [SEQ ID NO: 16]”, 9.11. As for “YXQGTFTSDYSKYLDCVRAQDFVQWLMRT (Y[Aib]QGTFTSDYSKYLDCVRAQDFVQWLMRT) [SEQ ID NO: 17]”, the figure is 6.03; as for “YXQGTFTSDYSKYLDECRAKEFVQWLMNT (Y[Aib]QGTFTSDYSKYLDECRAKEFVQWLMNT; lactam 16-20) [SEQ ID NO: 20]”, 4.78. As for “YXQGTFTSDYSKYLDEKCAKEFVQWLMNT [SEQ ID NO: 11] (Y[Aib]QGTFTSDYSKYLDEKCAKEFVQWLMNT)”, the figure is 4.78; as for “YXQGTFTSDYSKYLDEKCAKEFVQWLMNT [SEQ ID NO: 21] (Y[Aib]QGTFTSDYSKYLDEKCAKEFVQWLMNT; lactam 16-20)”, 4.78; as for “YXQGTFTSDYSKYLDEKRAKCFVQWLMNT (Y[Aib]QGTFTSDYSKYLDEKRAKCFVQWLMNT; lactam 16-20) [SEQ ID NO: 25]”, 8.12. Regarding “YXQGTFTSDYSKYLDEKRAKEFVQWLMNTC (Y[Aib]QGTFTSDYSKYLDEKRAKEFVQWLMNTC; lactam 16-20) [SEQ ID NO: 12]”, the pl was found to be 6.20. With “YXQGTFTSDYSKYLDEKRCKEFVQWLMNT (Y[Aib]QGTFTSDYSKYLDEKRCKEFVQWLMNT; lactam 16-20) [SEQ ID NO: 22]” the figure was 6.20; with “YXQGTFTSDYSKYLDERRAKEFVQWLMNTC (Y[Aib]QGTFTSDYSKYLDERRAKEFVQWLMNTC; lactam 16-20) [SEQ ID NO: 37]”, 6.21. The sequence “YXQGTFTSDYSKYLDSCDADDFVVWLINT (Y[Aib]QGTFTSDYSKYLDSCDADDFVVWLINT) [SEQ ID NO: 10]” showed a pl of 3.66. “YXQGTFTSDYSKYLDSCDAQDFVQWLINT (Y[Aib]QGTFTSDYSKYLDSCDAQDFVQWLINT) [SEQ ID NO: 8]” displayed a pl of 3.77. “YXQGTFTSDYSKYLDSCDAQDFVVWLINT (Y[Aib]QGTFTSDYSKYLDSCDAQDFVVWLINT) [SEQ ID NO: 9]”: the pl stood at 3.77. “YXQGTFTSDYSKYLDSRRACDFRLWLMNT (Y[Aib]QGTFTSDYSKYLDSRRACDFRLWLMNT) [SEQ ID NO: 18]” displayed a pl of 8.15.

For the sequence “YXQGTFTSDYSKYLDSRRAQDFVQWLMNT (X non-natural residue; glucagon derivative; (2) Xaa is aminoisobutyric acid (Aib)) [SEQ ID NO: 33]”, the pl is 6.04.

As to “YXQGTFTSDYSKYLDSRRAQDFVQWLMNTC (glucagon derivative; (2) Xaa is aminoisobutyric acid (Aib)) [SEQ ID NO: 44]”, the pl stood at 6.21. With “YXQGTFVSDCSKYLDERRAKDFVQWLMNT (Y[Aib]QGTFVSDCSKYLDERRAKDFVQWLMNT; lactam 16-20) [SEQ ID NO: 39]” the figure was 6.15; with “YXQGTFVSDYSKYLDECRAKDFVQWLMNT (Y[Aib]QGTFVSDYSKYLDECRAKDFVQWLMNT; lactam 16-20) [SEQ ID NO: 27]”, 4.68. As for “YXQGTFVSDYSKYLDERRAKDFVQWLMNTC (Y[Aib]QGTFVSDYSKYLDERRAKDFVQWLMNTC; lactam 16-20) [SEQ ID NO: 40]”, the figure is 6.15.
